Key:
A244gD+ gp120 [1] = target: T1, A244gD+ gp120 (herpes simplex virus; HIV-1); test: ELISA on monomeric Env
CM 243 gp120 = target: T2, CM 243 gp120 (HIV-1); test: ELISA on monomeric Env
T2 construct: domain: gp120; also called gp120 CM243

HV00046 (902114 B2 140C) = target: T3, HV00046 (902114 B2 140C) (HIV-1); test: ELISA on monomeric Env
T3 construct: domain: gp140

[2] = target: Env (gp120) of HIV-1 isolate 7165.18 (HIV-1); test: cell-based or functional assay
[3] = target: Env (gp120) of HIV-1 isolate Q23.17 (HIV-1); test: cell-based or functional assay
[4] = target: Env (gp120) of HIV-1 7165.18.N160K (HIV-1); test: cell-based or functional assay
[5] = target: Env (gp120) of HIV-1 isolate JRFL (virus) (HIV-1); test: cell-based or functional assay
[6] = target: Env (gp120) of HIV-1 JRFL.E168K (HIV-1); test: cell-based or functional assay
[7] = target: Env (gp120) of HIV-1 Q23.17.N160K (HIV-1); test: cell-based or functional assay
[8] = target: Env (gp120) of HIV-1 isolate JRCSF (HIV-1, UniProt P20871 32-848); test: cell-based or functional assay
[9] = target: Env (gp120) of HIV-1 JRFL.N160K.E168K (HIV-1); test: cell-based or functional assay
SSB [10] = test: Athena autoantigen assay, mAb 25 ug/ml
SSA [11] = test: Athena autoantigen assay, mAb 25 ug/ml
Jo 1 [12] = test: Athena autoantigen assay, mAb 25 ug/ml
Cent B [13] = target: T4, Cent B; test: Athena autoantigen assay, mAb 25 ug/ml
T4 construct: also called centromere B

Scl 70 [14] = test: Athena autoantigen assay, mAb 25 ug/ml
Sm [15] = test: Athena autoantigen assay, mAb 25 ug/ml
Histone [16] = test: Athena autoantigen assay, mAb 25 ug/ml
RNP [17] = test: Athena autoantigen assay, mAb 25 ug/ml
SSB [18] = test: Athena autoantigen assay, mAb 12.5 ug/ml
SSA [19] = test: Athena autoantigen assay, mAb 12.5 ug/ml
Jo 1 [20] = test: Athena autoantigen assay, mAb 12.5 ug/ml
Cent B [21] = target: T4, Cent B; test: Athena autoantigen assay, mAb 12.5 ug/ml
Scl 70 [22] = test: Athena autoantigen assay, mAb 12.5 ug/ml
Sm [23] = test: Athena autoantigen assay, mAb 12.5 ug/ml
Histone [24] = test: Athena autoantigen assay, mAb 12.5 ug/ml
RNP [25] = test: Athena autoantigen assay, mAb 12.5 ug/ml
MN gp120 = target: T5, MN gp120 (HIV-1, UniProt P05877 32-513); test: ELISA
T5 construct: domain: gp120

SSB [26] = test: Athena autoantigen assay, mAb 6.25 ug/ml
SSA [27] = test: Athena autoantigen assay, mAb 6.25 ug/ml
Jo 1 [28] = test: Athena autoantigen assay, mAb 6.25 ug/ml
Cent B [29] = target: T4, Cent B; test: Athena autoantigen assay, mAb 6.25 ug/ml
Scl 70 [30] = test: Athena autoantigen assay, mAb 6.25 ug/ml
Sm [31] = test: Athena autoantigen assay, mAb 6.25 ug/ml
Histone [32] = test: Athena autoantigen assay, mAb 6.25 ug/ml
RNP [33] = test: Athena autoantigen assay, mAb 6.25 ug/ml
A244gD- gp120 = target: T6, A244gD- gp120 (HIV-1); test: SPR
T6 construct: domain: gp120

HV00044 (6240 TZ5 140C) = target: T7, HV00044 (6240 TZ5 140C) (HIV-1); test: SPR
T7 construct: domain: gp140; also called 624008 TA5 gp140; 6240 transmitted founder Env

A244gD+ gp120 [34] = target: T1, A244gD+ gp120; test: SPR

T4 sequence (P07199 2-599): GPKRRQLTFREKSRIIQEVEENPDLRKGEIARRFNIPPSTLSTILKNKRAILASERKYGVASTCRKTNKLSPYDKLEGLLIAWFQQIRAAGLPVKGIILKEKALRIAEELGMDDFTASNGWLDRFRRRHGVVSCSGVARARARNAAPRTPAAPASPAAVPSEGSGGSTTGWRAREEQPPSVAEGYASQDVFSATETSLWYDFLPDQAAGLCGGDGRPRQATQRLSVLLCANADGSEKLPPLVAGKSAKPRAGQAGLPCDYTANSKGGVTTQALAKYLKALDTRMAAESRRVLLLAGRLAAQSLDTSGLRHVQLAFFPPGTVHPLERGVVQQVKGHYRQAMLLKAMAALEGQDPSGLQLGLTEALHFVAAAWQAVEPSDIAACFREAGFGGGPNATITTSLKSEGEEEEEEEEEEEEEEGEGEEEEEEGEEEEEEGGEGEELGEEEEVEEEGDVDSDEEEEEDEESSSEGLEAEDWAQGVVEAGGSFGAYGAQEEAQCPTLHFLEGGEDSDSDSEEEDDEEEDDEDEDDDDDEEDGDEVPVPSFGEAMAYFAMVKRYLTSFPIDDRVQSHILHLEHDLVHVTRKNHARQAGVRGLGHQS
Sequence of SSB (P05455 whole entry): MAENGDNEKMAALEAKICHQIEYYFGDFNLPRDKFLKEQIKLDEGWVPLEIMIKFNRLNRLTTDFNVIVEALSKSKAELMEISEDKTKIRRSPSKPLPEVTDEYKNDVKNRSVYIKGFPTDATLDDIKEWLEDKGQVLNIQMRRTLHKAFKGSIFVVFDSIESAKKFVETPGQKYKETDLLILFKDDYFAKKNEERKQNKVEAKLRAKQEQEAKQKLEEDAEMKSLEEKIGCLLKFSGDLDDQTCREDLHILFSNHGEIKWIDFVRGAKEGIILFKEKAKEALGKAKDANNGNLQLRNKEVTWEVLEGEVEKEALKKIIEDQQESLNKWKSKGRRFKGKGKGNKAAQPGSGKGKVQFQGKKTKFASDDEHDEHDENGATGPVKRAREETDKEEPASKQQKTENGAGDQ
Sequence of Jo 1 (P12081 2-509): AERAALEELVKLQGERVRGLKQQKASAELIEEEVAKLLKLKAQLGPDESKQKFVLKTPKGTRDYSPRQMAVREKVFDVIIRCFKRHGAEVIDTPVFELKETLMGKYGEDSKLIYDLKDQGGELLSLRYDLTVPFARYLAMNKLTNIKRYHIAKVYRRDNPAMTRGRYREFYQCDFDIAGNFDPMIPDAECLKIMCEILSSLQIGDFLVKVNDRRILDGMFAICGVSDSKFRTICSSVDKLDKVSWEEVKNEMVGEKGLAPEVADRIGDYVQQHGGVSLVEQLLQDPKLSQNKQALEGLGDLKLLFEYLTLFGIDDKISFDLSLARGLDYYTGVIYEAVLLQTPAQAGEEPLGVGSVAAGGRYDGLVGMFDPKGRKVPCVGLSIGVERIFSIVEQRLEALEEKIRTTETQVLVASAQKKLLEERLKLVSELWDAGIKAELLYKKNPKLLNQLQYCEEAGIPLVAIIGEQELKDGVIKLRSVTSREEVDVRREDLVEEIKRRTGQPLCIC

B1: CH01 (antibody, V domains shown)
VH: EVQLVESGANVVRPGGSLRLSCKASGFIFENFGFSWVRQAPGKGLQWVAGLNWNGGDTRYADSVKGRFRMSRDNSRNFVYLDMDKVGVDDTAFYYCARGTDYTIDDAGIHYQGSGTFWYFDLWGRGTLVSVSS
VL: EIVLTQSPGTLSLSPGERATLSCRASHNVHPKYFAWYQQKPGQSPRLLIYGGSTRAAGIPGKFSGSGSGTDFTLTISRVDPEDFAVYYCQQYGGSPYTFGQGTKVEI
notes: also called 1-27-G2; 27G2
- EC50 (A244gD+ gp120 [1]): 7.8 µM
- EC50 (CM 243 gp120): 12.7 µM
- EC50 (HV00046 (902114 B2 140C)): 63.2 µM
- IC50 (virus neutralization) [2]: 5.82 mg/L
- IC80 (virus neutralization) [2]: > 50 mg/L
- IC50 (virus neutralization) [3]: 0.014 mg/L
- IC80 (virus neutralization) [3]: 0.035 mg/L
- IC50 (virus neutralization) [4]: > 50 mg/L
- IC80 (virus neutralization) [4]: > 50 mg/L
- IC50 (virus neutralization) [5]: > 50 mg/L
- IC80 (virus neutralization) [5]: > 50 mg/L
- IC50 (virus neutralization) [6]: 0.044 mg/L
- IC80 (virus neutralization) [6]: 0.382 mg/L
- IC50 (virus neutralization) [7]: > 50 mg/L
- IC80 (virus neutralization) [7]: > 50 mg/L
- IC50 (virus neutralization) [8]: 0.07 mg/L
- IC80 (virus neutralization) [8]: > 50 mg/L
- IC50 (virus neutralization) [9]: > 50 mg/L
- IC80 (virus neutralization) [9]: > 50 mg/L
- Athena autoreactivity score (SSB [10]): 5.5
- Athena autoreactivity score (SSA [11]): 6.5
- Athena autoreactivity score (Jo 1 [12]): 2.5
- Athena autoreactivity score (Cent B [13]): 14
- Athena autoreactivity score (Scl 70 [14]): 3
- Athena autoreactivity score (Sm [15]): 4
- Athena autoreactivity score (Histone [16]): 17.5
- Athena autoreactivity score (RNP [17]): 5.5
- Athena autoreactivity score (SSB [18]): 5
- Athena autoreactivity score (SSA [19]): 5
- Athena autoreactivity score (Jo 1 [20]): 2
- Athena autoreactivity score (Cent B [21]): 10
- Athena autoreactivity score (Scl 70 [22]): 2
- Athena autoreactivity score (Sm [23]): 3
- Athena autoreactivity score (Histone [24]): 13.5
- Athena autoreactivity score (RNP [25]): 4.5
- binding result (MN gp120): no binding
- Athena autoreactivity score (SSB [26]): 5.5
- Athena autoreactivity score (SSA [27]): 5.5
- Athena autoreactivity score (Jo 1 [28]): 2
- Athena autoreactivity score (Cent B [29]): 7
- Athena autoreactivity score (Scl 70 [30]): 1.5
- Athena autoreactivity score (Sm [31]): 2.5
- Athena autoreactivity score (Histone [32]): 10
- Athena autoreactivity score (RNP [33]): 4
- Kd (A244gD- gp120): 0.34 µM
- Kd (HV00044 (6240 TZ5 140C)): 0.3 µM
- Kd (A244gD+ gp120 [34]): 0.0088 µM
